Test results as given in article PMC7939470 (The Journal of Biological Chemistry, 2021).
Like-named read-outs stand apart in the source and are kept apart here. Where no end group is shown, it is not given here.

Tests used:
RPA70A (RPA70A181–304) = assay: Fluorescence polarization anisotropy (FPA) assay, FITC-labeled peptide + RPA70A; type: binding; details: 50 nM FITC-labeled peptide, 0–150 μM RPA70A, pH 7.4, 25 °C, anisotropy not saturated, not fitted
Description: RPA70N1–120 and RPA70A181–304 were expressed and purified as described previously ([5], [30]). ^15N-Labeled RPA70N was also expressed and purified with the same method using M9 medium. All of the synthesized peptides except for the FITC-labeled peptide were purchased from Lugen Sci (Gyeonggi-do, Korea). FITC-labeled peptides were purchased from AnyGen (Gwangju, Korea). Purchased peptides were dissolved in 20 mM HEPES, 100 mM NaCl, 2 mM DTT, pH 7.4, buffer to make a 2 mM stock and stored at −20 °C until use.
For FITC labeling, a 6-aminocaproic acid (6-aminohexanoic acid) spacer was used. […] The emission polarization anisotropy was calculated by referring to a previous publication ([5]). The fluorescence was measured using BioTek Cytation5 and GENE5 software (GIST, Gwangju) with excitation and emission wavelengths of 485 and 528 nm, respectively. […] All experiments were repeated three times, and dissociation constants (Kd) were calculated using the “one site–specific” fitting model of the GraphPad software. The equation used in the fitting is as follows, (Eq. 1) y=Bmax×X/Kd+X where y is the fluorescence anisotropy, Bmax is the maximum specific binding, Kd is the equilibrium binding constant, and X is the concentration of RPA. […] Equilibrium fluorescence measurements were performed in the same way as described above. […]

[1] = test system: RPA70N–BLM peptide complex; assay: Competitive FPA assay, unlabeled pmRPA32 peptide against FITC-labeled BLM peptide on RPA70N; type: binding; details: 0–250 μM unlabeled pmRPA32 peptide; 6 μM (BLM153-165) or 13 μM (BLM290-301) RPA70N; 500 nM FITC-labeled BLM peptide; repeated three times; Fig. S4
Description: For FITC labeling, a 6-aminocaproic acid (6-aminohexanoic acid) spacer was used. Increasing concentrations (0–150 μM) of RPA70N or RPA70A were prepared in an assay buffer of 20 mM HEPES, 100 mM NaCl, 2 mM DTT, pH 7.4, in Corning 96-well black flat-bottom plates (polystyrene, nontreated). To each well, FITC-RPA32 peptide was added to a final concentration of 50 nM, and the plates were incubated on a shaker for 1 h at 25 °C. The total volume of the reaction sample was 50 μl. The emission polarization anisotropy was calculated by referring to a previous publication ([5]). The fluorescence was measured using BioTek Cytation5 and GENE5 software (GIST, Gwangju) with excitation and emission wavelengths of 485 and 528 nm, respectively. […] All experiments were repeated three times, and dissociation constants (Kd) were calculated using the “one site–specific” fitting model of the GraphPad software. The equation used in the fitting is as follows, (Eq. 1) y=Bmax×X/Kd+X where y is the fluorescence anisotropy, Bmax is the maximum specific binding, Kd is the equilibrium binding constant, and X is the concentration of RPA. […] Equilibrium fluorescence measurements were performed in the same way as described above. […]
Competitive fluorescence polarization anisotropy of BLM peptide, RPA70N, and pmRPA32 peptide. […]

[2] = target: T1, RPA70N (N-terminal domain of RPA70, RPA70N1–120) (Homo sapiens, UniProt P27694); details: RPA70N binding, cited from earlier work
T1 construct: RPA70N1–120 and RPA70A181–304 were expressed and purified as described previously; made in house

[3] = target: T2, RPA70N_(1–120), N-terminal domain of RPA70 (DBD-F) (UniProt P27694 1-120); assay: fluorescence polarisation; FPA; 0–150 μM RPA70N or RPA70A titrated to 50 nM FITC-labeled peptide; 20 mM HEPES, 100 mM NaCl, 2 mM DTT, pH 7.4; 1 h at 25 °C; one site–specific fit; details: both partners purified
T2 construct: Replication protein A 70-kDa subunit (RPA70), N-terminal domain (DBD-F), residues 1-120; Uniformly 15N-labelled in the NMR titrations, unlabelled in the FPA assays; also called 15N-labeled RPA70N; source: 15N-labeled form by the same method using M9 medium

[4] = target: T2, RPA70N_(1–120), N-terminal domain of …; assay: fluorescence polarisation; competitive FPA; 0–250 μM unlabeled pmRPA32 peptide added to 6 μM (for BLM 153-165) or 13 μM (for BLM 290-301) RPA70N and 500 nM FITC-labeled BLM peptide; 20 mM HEPES, 100 mM NaCl, 2 mM DTT, pH 7.4; details: both partners purified
[5] = target: T2, RPA70N_(1–120), N-terminal domain of …; assay: fluorescence polarisation; FPA; 0–150 μM RPA70N or RPA70A titrated to 50 nM FITC-labeled peptide; 20 mM HEPES, 100 mM NaCl, 2 mM DTT, pH 7.4; 1 h at 25 °C; one site–specific fit; details: both partners purified; remark: listed apart in the source
[6] = measured with the same FPA method

With C[C@H](NC(=O)CNC(=O)CNC(=O)[C@H](Cc1ccc(O)cc1)NC(=O)[C@H](CC(=O)O)NC(=O)[C@H](CC(=O)O)NC(=O)[C@H](CC(=O)O)NC(=O)CNC(=O)[C@H](Cc1ccc(O)cc1)NC(=O)[C@H](CC(=O)O)NC(=O)CCCCCNC(=S)Nc1ccc2c(c1)C(=O)OC21c2ccc(O)cc2Oc2cc(O)ccc21)C(=O)NCC(=O)NCC(=O)N[C@@H](Cc1ccc(O)cc1)C(=O)N[C@@H](CC(=O)O)C(=O)N[C@@H](CCC(N)=O)C(=O)N[C@@H](CC(=O)O)C(=O)N1CCC[C@H]1C(=O)NCC(=O)NCC(=O)N[C@@H](Cc1ccccc1)C(=O)NCC(=O)N[C@@H](CC(=O)O)C(=O)N1CCC[C@H]1C(=O)N[C@@H](C)C(=O)N1CCC[C@H]1C(=O)N[C@@H](CC(=O)O)C(=O)O [pmRPA32] the “Binding to RPA70A (in words)” value (RPA70A (RPA70A181–304)) was “does not bind” and the “Competition with FITC-labeled BLM peptide for RPA70N” value [1] was “did not compete with BLM peptide”.

For “ATRIP54–68: RPA70N-binding sequence of ATRIP (DFTADDLEELDTLAS; UniProt Q8WXE1 54-68, looked up, fragment)”, the Kd [2] is listed as 28.6 ± 3.1 µM.

In the case of “BLM153–165: acidic RPA70N-binding peptide from the N-terminal region of Bloom syndrome protein (DWDDMDDFDTSET; also: FITC via 6-aminohexanoic acid spacer, end not given here)”, the Kd [2, 6] is given as 5.76 ± 0.86 µM.

In the case of “BLM290–301: acidic RPA70N-binding peptide from the N-terminal region of Bloom syndrome protein (EFDDDDYDTDFV; also: FITC via 6-aminohexanoic acid spacer, end not given here)”, the Kd [2, 6] is given as 13.5 ± 2.4 µM.

For “MRE11_539–553: RPA70N-binding sequence of MRE11 (AFSADDLMSIDLAEQ; UniProt P49959 539-553, looked up, fragment)”, the Kd [2] is listed as 65.8 ± 23.7 µM.

In the case of “RAD9_297–311: RPA70N-binding sequence of RAD9 (DFANDDIDSYMIAME; UniProt Q99638 297-311, looked up, fragment)”, the Kd [2] is given as 51.4 ± 8.9 µM.

In the case of “p53_44–58: RPA70N-binding sequence of p53”, the Kd [2] is listed as 99.9 ± 8.4 µM.

With DYGDDDYGGAGGADQDPGGFGDPAPD (peptide, UniProt P15927 8-33, looked up, also: FITC with 6-aminohexanoic acid spacer, end not given here) [FITC-labeled pmRPA32-Y20A peptide] the Kd [3] was 24.5 ± 0.7 µM.

B1: FITC-labeled BLM_(153-165) peptide (peptide, UniProt P54132 153-165, looked up)
peptide: DWDDMDDFDTSET
modifications: also: FITC via 6-aminohexanoic acid spacer, end not given here
notes: also called BLM peptide; source: synthetic peptide, bought: AnyGen
B1: binds [4].

With DYGDDDAGGAGGYDQDPGGFGDPAPD (peptide, UniProt P15927 8-33, looked up, also: FITC with 6-aminohexanoic acid spacer, end not given here) [FITC-labeled pmRPA32-Y14A peptide] the Kd [3] was 37 ± 0.6 µM.

With DYGDDDYGGAGGYDQDPGGAGDPAPD (peptide, UniProt P15927 8-33, looked up, also: FITC with 6-aminohexanoic acid spacer, end not given here) [FITC-labeled pmRPA32-F27A peptide] the Kd [3] was 21.7 ± 0.5 µM.

DAGDDDYGGAGGYDQDPGGFGDPAPD (peptide, UniProt P15927 8-33, looked up, also: FITC with 6-aminohexanoic acid spacer, end not given here) [FITC-labeled pmRPA32-Y9A peptide] showed a Kd [3] of 40 ± 0.7 µM.

B2: FITC-labeled BLM_(290-301) peptide (peptide, UniProt P54132 290-301, looked up)
peptide: EFDDDDYDTDFV
modifications: also: FITC via 6-aminohexanoic acid spacer, end not given here
notes: as for B1
B2: binds [4].

DYGDDDYGGAGGYDQDPGGFGDPAPD (peptide, UniProt P15927 8-33, looked up, also: FITC with 6-aminohexanoic acid spacer, end not given here) [FITC-labeled pmRPA32_(8–33) peptide (phosphomimetic RPA32, eight aspartic acids)] showed a Kd [5] of 21.5 ± 0.6 µM.
